These results are taken from paper PMC6630525 (Molecules, 2019).

Values joined by “and” are separate entries in the source; they are usually repeats but may differ in a detail not shown here. Identical values can stand only once.

Data set [1] concerns the molecule itself. Description: SAXS; ESRF BM29, samples at 5, 3 and 2 mg/mL, 10 °C; molecular mass estimated with ATSAS.
Data set [2] deals with the molecule itself. Description: AUC; sedimentation velocity, 40,000 rpm, 20 °C, samples diluted in SEC buffer to OD280 0.5; c(s) distribution and non-interacting species model.
Data set [3] deals with the molecule itself. Briefly: SEC; analytical gel filtration, Superdex 200 10/300 GL, 4 °C, 20 mM Tris-HCl with 0.2, 0.5 or 2.0 M NaCl after dialysis into the same buffer. A general note: In gel filtration, larger molecules generally elute earlier.

B1: AtNRP1 NT/CT (AtNRP1 residues 14-226) (domain or fragment, Arabidopsis thaliana, UniProt Q9CA59 14-226, looked up)
chain: KGEEENLEQIDAELVLSIEKLQEIQDDLEKINEKASDEVLEVEQKYNVIRKPVYDKRNEVIQSIPGFWMTAFLSHPALGDLLTEEDQKIFKYLNSLEVEDAKDVKSGYSITFHFTSNPFFEDAKLTKTFTFLEEGTTKITATPIKWKEGKGLPNGVNHDDKKGNKRALPEESFFTWFTDAQHKEDAGDEIHDEVADIIKEDLWSNPLTYFNND
notes: NAP1-related protein 1 (AtNRP1), Arabidopsis thaliana, residues 14-226, in pGEX-6P-1 between BamHI and SalI; A few vector residues may remain at the N-terminus after PreScission cleavage (surmise); also called AtNRP1_(14-226); GST-AtNRP1_(14-226); not shown: GST, N-terminal, cleaved
On to B1, for which the “stoichiometry N” value in data set [1] is 2.

B2: full-length Arabidopsis thaliana NAP1-Related Protein 2 (AtNRP2-His) (natural protein, UniProt Q8LC68-2 1-256, looked up)
chain: MVTDKSKKAKTEEENVEQIDAELVLSIEKLQEIQDDLEKINEKASDEVLEVEQKYNVIRKPVYDKRNEIIKTIPDFWLTAFLSHPALGELLTEEDQKIFKYLSSLDVEDAKDVKSGYSITFSFNPNPFFEDGKLTKTFTFLEEGTTKITATPIKWKEGKGLANGVNHEKNGNKRALPEESFFTWFSDAQHKEDVEDEMQDEQVADIIKEDLWPNPLTYFNNDADEEDFDGDDDGDEEEKEGDSDEDDDEEDEVGEE
notes: NAP1-related protein 2 (AtNRP2), Arabidopsis thaliana; full-length ORF optimised for bacterial expression (Genscript) in pET22b(+) between NdeI and XhoI; Predominantly a dimer in solution; tetramer and a higher species also seen by AUC; also called full-length AtNRP2; not shown: His6, C-terminal, kept
As to B2, the “stoichiometry N” value in data set [2] was 2 and 4.

B3: full-length Arabidopsis thaliana NAP1-Related Protein 1 (AtNRP1-His) (natural protein, UniProt Q9CA59 1-256, looked up)
chain: MVADKSKKSKIEEKGEEENLEQIDAELVLSIEKLQEIQDDLEKINEKASDEVLEVEQKYNVIRKPVYDKRNEVIQSIPGFWMTAFLSHPALGDLLTEEDQKIFKYLNSLEVEDAKDVKSGYSITFHFTSNPFFEDAKLTKTFTFLEEGTTKITATPIKWKEGKGLPNGVNHDDKKGNKRALPEESFFTWFTDAQHKEDAGDEIHDEVADIIKEDLWSNPLTYFNNDADEEDFDGDDDGDEEGEEDDDDEEEEDGEE
notes: NAP1-related protein 1 (AtNRP1), Arabidopsis thaliana; full-length ORF optimised for bacterial expression (Genscript) in pET22b(+) between NdeI and XhoI; also called full-length AtNRP1; not shown: His6, C-terminal, kept
Take B3: in data set [3], the binding result is “binds”.

B4: AtNRP2 NT/CT (AtNRP2 residues 14-223) (domain or fragment, Arabidopsis thaliana, UniProt Q8LC68-2 14-223, looked up)
chain: ENVEQIDAELVLSIEKLQEIQDDLEKINEKASDEVLEVEQKYNVIRKPVYDKRNEIIKTIPDFWLTAFLSHPALGELLTEEDQKIFKYLSSLDVEDAKDVKSGYSITFSFNPNPFFEDGKLTKTFTFLEEGTTKITATPIKWKEGKGLANGVNHEKNGNKRALPEESFFTWFSDAQHKEDVEDEMQDEQVADIIKEDLWPNPLTYFNNDA
notes: NAP1-related protein 2 (AtNRP2), Arabidopsis thaliana, residues 14-223 (first 13 and last 35 residues removed), in pGEX-6P-1 between BamHI and SalI; A few vector residues may remain at the N-terminus after PreScission cleavage (surmise); Heated at 40 °C for 10 min before crystallization; also called AtNRP2_(14-223); GST-AtNRP2_(14-223); not shown: GST, N-terminal, cleaved
Consider B4, for which the “stoichiometry N” value in data set [2] stood at 2.

For orientation: stoichiometry N means the number of molecules, sites or subunits per partner or assembly.
